# According to patent US7871610B2, “Antibodies to Tie1 ectodomain” (Dyax Corp., priority 2003, dated 2011):
# T1: Tie1-EpoR chimeric receptor (UniProt P14753+P35590)
# T1 construct: the PCR amplified extracellular part of human Tie1 (bp 37-2316 of X60975); expressed in transfected cells
# T1 sequence (P35590+P14753 with tags, fused parts or gaps): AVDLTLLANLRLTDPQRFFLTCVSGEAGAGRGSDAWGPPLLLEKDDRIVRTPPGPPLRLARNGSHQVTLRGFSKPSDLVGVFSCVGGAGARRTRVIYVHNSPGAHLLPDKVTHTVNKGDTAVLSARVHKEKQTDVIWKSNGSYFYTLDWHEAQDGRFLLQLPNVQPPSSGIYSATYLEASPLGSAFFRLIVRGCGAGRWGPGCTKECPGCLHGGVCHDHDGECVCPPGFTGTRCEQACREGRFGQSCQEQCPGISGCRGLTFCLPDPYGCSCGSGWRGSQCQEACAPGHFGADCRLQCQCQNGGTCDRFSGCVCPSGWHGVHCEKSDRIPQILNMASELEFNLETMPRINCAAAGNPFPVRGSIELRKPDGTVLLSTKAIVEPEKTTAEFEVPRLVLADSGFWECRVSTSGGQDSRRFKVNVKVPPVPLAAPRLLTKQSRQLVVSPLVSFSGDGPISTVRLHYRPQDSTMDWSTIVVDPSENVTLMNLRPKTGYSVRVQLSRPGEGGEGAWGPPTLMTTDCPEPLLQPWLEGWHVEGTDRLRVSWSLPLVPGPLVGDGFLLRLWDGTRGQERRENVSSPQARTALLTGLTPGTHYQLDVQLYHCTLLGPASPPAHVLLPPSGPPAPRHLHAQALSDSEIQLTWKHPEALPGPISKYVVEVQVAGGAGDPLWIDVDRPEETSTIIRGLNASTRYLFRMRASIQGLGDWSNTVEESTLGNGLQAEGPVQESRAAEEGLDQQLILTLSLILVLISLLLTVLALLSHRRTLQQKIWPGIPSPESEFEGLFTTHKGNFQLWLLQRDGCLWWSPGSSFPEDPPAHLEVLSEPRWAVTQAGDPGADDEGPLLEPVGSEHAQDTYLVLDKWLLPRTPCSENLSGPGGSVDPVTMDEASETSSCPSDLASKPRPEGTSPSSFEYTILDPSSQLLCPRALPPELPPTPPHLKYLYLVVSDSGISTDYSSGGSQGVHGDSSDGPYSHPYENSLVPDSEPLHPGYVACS
# Columns and labels:
# [1] = target: T1, Tie1-EpoR chimeric receptor; test: Ba/F3 bioassay (Tie1/EpoR chimeric BaF3 cell assay), MTT viability; assay type: cell-based, human; settings: for survival/viability of Tie1-EpoR Ba/F3 cells: antibody alone, no IL-3
# How it was run: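 Ba/F3 cells expressing human Tie1 extracellular domain fused to mouse EpoR transmembrane/cytoplasmic domains, seeded at 50 000 cells/well with anti-Tie1 antibodies for 48 h. Non-expressing Zeocin-resistant pools served as controls. Survival read by MTT (0.5 mg/ml, 2 h), SDS/HCl lysis overnight at 37 °C, absorbance at 540 nm.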
# mouse Tie1 = target: T2, mouse Tie1 (Mus musculus, UniProt Q06806); test: Flow cytometry binding to mouse endothelial cell lines; settings: MS1, Le-2, Bend3, SVEC and Tie-1 transfected Le-2 cells; biotinylated antibody
# T2 construct: host or cells: mouse endothelial cell lines MS1, Le-2, Bend3, SVEC
# T2 sequence (Q06806 23-1134): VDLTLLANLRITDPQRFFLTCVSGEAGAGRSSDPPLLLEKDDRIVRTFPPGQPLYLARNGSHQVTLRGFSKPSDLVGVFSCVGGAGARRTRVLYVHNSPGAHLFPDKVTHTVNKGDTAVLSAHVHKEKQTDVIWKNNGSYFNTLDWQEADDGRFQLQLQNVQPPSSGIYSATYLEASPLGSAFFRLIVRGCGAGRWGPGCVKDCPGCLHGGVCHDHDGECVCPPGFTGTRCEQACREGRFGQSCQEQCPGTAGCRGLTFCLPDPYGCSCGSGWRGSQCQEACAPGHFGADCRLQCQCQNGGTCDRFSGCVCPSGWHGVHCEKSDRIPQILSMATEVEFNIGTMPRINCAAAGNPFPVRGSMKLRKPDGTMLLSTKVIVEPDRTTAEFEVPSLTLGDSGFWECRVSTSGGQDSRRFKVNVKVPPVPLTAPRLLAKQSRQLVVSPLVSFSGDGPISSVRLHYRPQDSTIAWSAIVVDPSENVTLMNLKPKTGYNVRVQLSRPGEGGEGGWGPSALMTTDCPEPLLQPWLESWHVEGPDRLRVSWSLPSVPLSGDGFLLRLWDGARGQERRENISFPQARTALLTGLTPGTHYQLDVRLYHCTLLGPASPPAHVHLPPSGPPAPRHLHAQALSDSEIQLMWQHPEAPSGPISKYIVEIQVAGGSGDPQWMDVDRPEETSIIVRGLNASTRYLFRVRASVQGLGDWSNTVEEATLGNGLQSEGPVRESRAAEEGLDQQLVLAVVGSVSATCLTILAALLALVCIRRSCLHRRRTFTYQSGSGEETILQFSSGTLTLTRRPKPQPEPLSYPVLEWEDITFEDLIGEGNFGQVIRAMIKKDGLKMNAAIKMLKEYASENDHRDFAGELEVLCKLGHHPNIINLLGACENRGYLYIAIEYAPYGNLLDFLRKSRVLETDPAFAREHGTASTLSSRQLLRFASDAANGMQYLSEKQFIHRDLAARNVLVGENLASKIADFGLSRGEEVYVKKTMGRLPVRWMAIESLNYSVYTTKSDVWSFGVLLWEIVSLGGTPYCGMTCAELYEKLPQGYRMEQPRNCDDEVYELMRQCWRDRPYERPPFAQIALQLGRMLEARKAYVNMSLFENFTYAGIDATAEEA
# Protocol: Specific binding of the Tie-1 antibodies and of control Mabs to mouse endothelial cells was measured by flow cytometry analysis (FACSscan, Becton Dickinson, Oxnard, Epics, Coulter). Mouse endothelial cell lines MS1, Le-2, Bend3, SVEC (ATCC, Rockville) and Tie-1 transfected Le-2 cells were stained. Cell staining was modified from existing protocols. About 200,000 cells were used in each experiment: after trypsinization, cells were washed one time in PBS and resuspended PBS, 10% Heat inactivated human serum (incubation buffer). To test specificity, antibodies were incubated at different dilutions for 1 h at room temperature. Cells were spun down by centrifugation for 3 min at 611 g. Between incubations cells were washed twice with PBS. […] After the final incubation step bound antibodies were detected by means of flow cytometry on a FACSCan and Epics Altra (Becton Dickinson, Oxnard, Coulter) and results analyzed.
# Intracellular Tie-1 was measured as described above, except for the addition of Saponin to the incubation buffer to a final concentration of 0.1% during incubations. […] The binding pattern in mouse cell lines detected by flow cytometry is different from the binding pattern in HUVEC in that in mouse cells there is a greater cell surface staining than that compared to primary human endothelial cell lines.
molecule,measurement,setting,value
"E3: human anti-Tie1 antibody from Fab phage library; HC SEQ ID NO:114, LC SEQ ID NO:116 (antibody, V domains shown, Synthetically generated peptide) VH: EVQLLESGGGLVQPGGSLRLSCAASGFTFSMYGMVWVRQAPGKGLEWVSVISPSGGNTGYADSVKGRFTISRDNSKNTLYLQVNSLRAEDTAVYYCARAPRGYSYGYYYWGQGTLVTVSSASTKGPSVFPLAPSSKSTSGG VL: DIQMTQSPLSLSASVGDRVTITCRASQGIGHYLAWYQQKPGKVPKLLIYTASTLQSGVPSRFSGSGSGTDFTLTINSLQPEDVATYYCQQFNSYPHTFGQGTRLDIK",concentration giving almost maximal viability in Tie1-EpoR cell survival assays,[1]; Tie1-EpoR Ba/F3 cells,50 ng/mL
same,Average MTT activity in BaF3 cell assay,"[1]; Tie1-EpoR Ba/F3 cells, 48 h, absorbance 540 nm, E3 IgG 100 ng/ml together with 100 or 500 ng/ml of the other antibody",0.61
same,survival/viability of Tie1-EpoR Ba/F3 cells,[1],functions as a Tie1 activating antibody
same,survival/viability of Tie1-EpoR Ba/F3 cells,[1]; listed as E3 IgG,able to promote survival
same,viability of EpoR Ba/F3 cells used as a control,[1]; control cells not expressing Tie1-EpoR,not affected
same,binding to mouse endothelial cell lines,mouse Tie1,binds to mouse endothelial cell lines
